Patent publication US7410949
Primed or numbered codes have the meaning given here. [ ]: non-standard residue; d: D form. Pqa″ = not defined here

B1: H-Ile-Lys-Pqa-Ala-His-Trp-Leu-Asn-Leu-Val-Thr-Arg-Gln-Arg-Tyr-NH2 (peptide)
peptide: H-IK[Pqa″]AHWLNLVTRQRY-NH2
modifications: reading uncertain; also: printed as H-Ile-Lys-Pqa-Ala-His-Trp-Leu-Asn-Leu-Val-Thr-Arg-Gln-Arg-Tyr-NH2
B2: H-Ile-Lys-Pqa-Arg-His-Trp-Leu-Asn-Leu-Val-Thr-Arg-Gln-Arg-Tyr-NH2 (peptide)
peptide: H-IK[Pqa″]RHWLNLVTRQRY-NH2
modifications: reading uncertain; also: printed as H-Ile-Lys-Pqa-Arg-His-Trp-Leu-Asn-Leu-Val-Thr-Arg-Gln-Arg-Tyr-NH2
B3: H-Ile-Lys-Pqa-Arg-His-Tyr-Ala-Asn-Leu-Val-Thr-Arg-Gln-Arg-Tyr-NH2 (peptide)
peptide: H-IK[Pqa″]RHYANLVTRQRY-NH2
modifications: reading uncertain; also: printed as H-Ile-Lys-Pqa-Arg-His-Tyr-Ala-Asn-Leu-Val-Thr-Arg-Gln-Arg-Tyr-NH2
B4: H-Ile-Lys-Pqa-Arg-His-Ala-Leu-Asn-Leu-Val-Thr-Arg-Gln-Arg-Tyr-NH2 (peptide)
peptide: H-IK[Pqa″]RHALNLVTRQRY-NH2
modifications: reading uncertain; also: printed as H-Ile-Lys-Pqa-Arg-His-Ala-Leu-Asn-Leu-Val-Thr-Arg-Gln-Arg-Tyr-NH2

Columns and labels:
Y4R = test: cell-based or functional assay
Y1R = test: cell-based or functional assay
Y1R, sequence (P25929 whole entry): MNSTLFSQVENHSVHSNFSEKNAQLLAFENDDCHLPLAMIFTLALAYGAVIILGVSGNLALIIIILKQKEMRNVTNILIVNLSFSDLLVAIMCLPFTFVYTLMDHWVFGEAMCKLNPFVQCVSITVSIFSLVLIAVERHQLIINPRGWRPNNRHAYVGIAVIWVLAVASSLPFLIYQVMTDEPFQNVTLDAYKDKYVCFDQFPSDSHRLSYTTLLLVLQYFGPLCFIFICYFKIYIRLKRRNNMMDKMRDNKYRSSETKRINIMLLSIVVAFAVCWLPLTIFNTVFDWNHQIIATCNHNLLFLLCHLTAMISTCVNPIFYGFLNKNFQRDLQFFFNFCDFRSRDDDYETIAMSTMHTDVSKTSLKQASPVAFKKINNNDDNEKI

Row | Binder | Y4R EC50(nM) FLIPR (Y4R) [nM] | Y1R EC50(nM) FLIPR (Y1R) [nM]
1 | B1 | > 5000 | –
2 | B2 | > 5000 | –
3 | B3 | > 5000 | > 5000
4 | B4 | > 5000 | > 5000
